Results reported in the supplement of paper PMC9170038.

System: K4 kissing-loop RNA reporter
Experiment: apparent KD of K4 kissing-loop reporter; higher = weaker reporter binding
Conditions: Eterna round: R107
Description: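 RNA-MaP round R107: designed RNA switches with theophylline, tryptophan, arginine or FMN aptamers are transcribed on-chip within common flanks. They are titrated with a labelled K4 kissing-loop RNA reporter in RNA-MaP buffer (100 mM Tris pH 7.5, 80 mM KCl, 4 mM MgCl2), without ligand or with the indicated ligand. Median apparent KD per design.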

[1] = input ligand: theophylline 20 uM
[2] = input ligand: tryptophan 2.4 mM
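Note: bound reporter read as fluorescence of individual clusters on recovered sequencing chips by microscopy, with normalized cluster intensities fitted with a binding model.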

Sequence | apparent KD of K4 kissing-loop reporter (input ligand: FMN 200 uM) | apparent KD of K4 kissing-loop reporter (input ligand: arginine 13.2 mM) | apparent KD of K4 kissing-loop reporter (input ligand: none) | apparent KD of K4 kissing-loop reporter [1] | apparent KD of K4 kissing-loop reporter [2]
UGGGAUUUGUCAGGAUAUGAGUGCAGUGAUGUUGCACUUAAUAAAGUACAUAGGCCCUGCUGGCACUCAGAAGGGACGGUGAUGC [Lalasobeer] | 122 nM | 73.6 nM | 103 nM | 86.7 nM | 92.4 nM
UGUACAUGUCACCGAGUGAUGUUCGACGAUACCAGACUCGAUAGAGUCCCUUGGCAGCGUAACGCAUGCCAAAGUGGCAUGUACU [#SwitchBubble 10 #K4Early] | 925 nM | 521 nM | 721 nM | 496 nM | 598 nM
UGUACAUGUCAGCGAGUGAUGUUCGACGAUACCAGACUCGAUAGAGUCCCUUGGCAGCGUAACGCAUGCCAAACUGGCAUGUACU [#SwitchBubble 9 #K4Early] | 789 nM | 819 nM | 1120 nM | 646 nM | 773 nM
UGUACCGAGUCAGGAUAUCAAAAUAAUUGGAGUGAUGUUCCAAAUACGACUGACAAAGUCGGUCGAUGAGAAGGGACUUGGUACU [FmnBS 11 #SwitchBubble #StaticStem] | 118 nM | 122 nM | 122 nM | 163 nM | 114 nM
UGUACCGAGUCAGGAUAUGACGACUAGUCAAAGACUGGUCGAAAAUCCAGUGAUGUUGGAAAUAAAUCAGAAGGGACUUGGUACU [FmnBS 16 #SwitchBubble #StaticStem] | 124 nM | 309 nM | 272 nM | 357 nM | 296 nM
UGUACCGAGUCAGGAUAUGGCGUCGAAAGACGAAAACCAGUGAUGUUGGAAAUCUGCGAAAGCAGUCCAGAAGGGACUUGGUACU [FmnBS 25 #SwitchBubble #StaticStem #DoubleMagnetSystem] | 199 nM | 233 nM | 266 nM | 251 nM | 251 nM
UGUACCGAGUCAGGAUAUGGCGUCGAAAGACGAAACCAGUGAUGUUGGAAUAUCGACGAAAGUCGUCCAGAAGGGACUUGGUACU [FmnBS 17 #SwitchBubble #StaticStem #DoubleMagnetSystem] | 153 nM | 264 nM | 256 nM | 264 nM | 273 nM
UGUACCGAGUUAGGAUAUGUCGUCGAAAGACGAAAUGGAGUGAUGUUCCUUAAACUGCGAAAGCAGACAGAAGGGACUUGGUACU [FmnBS 29 U11] | 233 nM | 473 nM | 474 nM | 493 nM | 429 nM
UGUACCGAUUCAGGAUAUGUCGUCGAAAGACGAAAUGGAGUGAUGUUCCUUAAACUGCGAAAGCAGACAGAAGGGAAUUGGUACU [FmnBS 29 U9+A77] | 146 nM | 285 nM | 300 nM | 318 nM | 284 nM
UGUAUAGUCAGAAGGAGCGUGAACGAUCGAGAAUCGAUCAGCCAGUGAUGUUGGCAGGAAUCACAGGUAGGUCGCUGACUGUACA [Arg B SS t3] | 237 nM | 208 nM | 258 nM | 240 nM | 208 nM
UGUAUGGACUGAAGGAGCGGUAGAUAAACUGAGUGAUGUUCGGCAGAUAAAGGCGCAAGCCACCAGGUAGGUCGCAGUCCAUACU [KL-SSArg B3] | 381 nM | 274 nM | 391 nM | 408 nM | 342 nM
UGUAUGUGAUUUGAUACCAGACCAGCUGGUGGUGUAUGAGUGAUGUUCAUGUUGGUUUGGGUCCCUUGGCAGCAAAUCGCAUACU [KL-SSTheoB30] | 14.5 nM | 7.4 nM | 11.8 nM | 8.88 nM | 11.7 nM
UGUCAUUGGUCGGCCGCCACUAGGACCGGGACUUCUCUAGUGAUGUUAGUCUGGUCGGCCGCCACUAGGACCGGGACCGAUGACU [KL-SSTryp-B14 #DoubleAptamer] | 561 nM | 368 nM | 671 nM | 327 nM | 103 nM
UGUGGAGGAUAUGAUACCAGCAGUGAGAGAGAGGAAGUAUAGUGAUGUUAUAUGAGAGAAUGCCCUUGGCAGCGUAUGUAGUAGG [SSTheophylB.I] | 270 nM | 210 nM | 218 nM | 208 nM | 191 nM
UGUGGUGUAUCCUUUAGGAGUGAUGUUUUUCGAGGACCGGUACGGCCGCCACUCGAGUGAUGAGAGCGUCGUUGUGGUGGUUUGU [#16 K4 Tryptophan A Exclusion] | 1060 nM | 698 nM | 1190 nM | 697 nM | 730 nM
UGUGUUGUUGUGAUGUUUGGUGUUGCAGGGCAGGAUAUCGUAGAGGCGAGAAGGGCUUUUGUGCGGUAUGAGUGAUGUUUGUAGG [rrcgsmullin] | 197 nM | 218 nM | 270 nM | 369 nM | 250 nM

Sequence | apparent KD of K4 kissing-loop reporter (input ligand: FMN 200 uM) | apparent KD of K4 kissing-loop reporter (input ligand: arginine 13.2 mM) | apparent KD of K4 kissing-loop reporter (input ligand: none) | apparent KD of K4 kissing-loop reporter [1] | apparent KD of K4 kissing-loop reporter [2]
UGUGUUUACCUGACUCAGUGAUGUUGAGAAGGAGCGUGCAAAAGCACAGGUAGGUCGCUCAACCUAAAUUCAGGUGAGCACUAAA | 270 nM | 201 nM | 255 nM | 252 nM | 264 nM
UGUGUUUACCUGACUCAGUGAUGUUGAGAAGGAGCGUGCAAAGGCACAGGUAGGUCGCUCAACCUAAAUUCAGGUGAGCACUAAA | 246 nM | 331 nM | 240 nM | 310 nM | 217 nM
UGUUGAGUGAUGUUCGAUGUAGUUCAUUCAGAGGAUAUAGGGUGGGCUAGAAGGCUGAAAAGUGCUUCGAGUGAUGUUCGAAGAU [Exclusion FMN A GF 7] | 77.3 nM | 77.7 nM | 99.3 nM | 89.5 nM | 91.1 nM
UUACGCGGCAUAGAUACCAGCAAUGCAGGAUAGGUCAAGAGUGAUGUUCUGAUACUUGGGUGCCCUUGGCAGCUAGACGAUAACA [theeternabot_sameState_KL_Theo_B_46] | 479 nM | 449 nM | 521 nM | 412 nM | 308 nM
UUAGAAGUAUACUUCAAGAGCUAUACUGAUACCAGAGUCAAUUGACUCCCUUGGCAGCGGAUCGAGUGAUGUUCGUAAGCUCAUU [AK4 SS Theophylline A] | 464 nM | 456 nM | 583 nM | 521 nM | 502 nM
UUAGUAUAGAGAGGAUAUACCUUCCAGUGAUGUUGGAUAGAUGAAUUUAAUCAUCAAGCAUAGCUUGUAGAAGGCUCUAUACAUU [AK1 SS FMN B] | 373 nM | 558 nM | 535 nM | 637 nM | 613 nM
UUAUAUAAUUUGUCUUUUUUAACAUUAAGUCAGGAUAUCGUAUAUUCGAGAAGGGACACAUGCUAGUGAUGUUAGCUAUUUCUUU [JR_ExcFMNA_Sub016] | 31.7 nM | 55.3 nM | 30.4 nM | 43 nM | 30.6 nM
UUAUAUUUCAGUGAUGUUGAAAAUAUAACAGAGGAUAUGCGUUUAAGCAGAAGGCUGAAAUACUAUACUUUAAUCUAUUAAAUUU [JR_Nu_SSFMNA_Sub027] | 195 nM | 356 nM | 350 nM | 353 nM | 323 nM
UUAUUGAGCGUUUGUGAGAAGGCGUUCUUCAAGGAUAUCGACGUAACGAGAAGGUGAUUCGUUCCGAGUGAUGUUCGGUACGGGC [theeternabot_sameState_KL_FMN_A_4] | 222 nM | 185 nM | 234 nM | 240 nM | 199 nM
UUCAGUGAUGUUGAACACUGUUGUAUAAACUAGGAUAUGCUGAUAAGCAGAAGGAGUGAUGUUCCGUUCAUCAUCAGAAUUAAAU [KL-XFMN-A3] | 673 nM | 400 nM | 360 nM | 424 nM | 250 nM
UUCUACGAGUGAUGUUCGUAGUGUAAUCGCUAGGAUAUCGUUUUUUCGAGAAGGAGCGUCGAAGUGAUACGAAAGUAUCGCUUCG [FMN A 13] | 151 nM | 258 nM | 300 nM | 284 nM | 284 nM
UUCUACGAGUGAUGUUCGUAGUGUAUUCACUAGGAUAUCGUUUUUUCGAGAAGGAGUGAGGAAGUGAUACGAAAGUAUCGCUUCC [FMN A 15] | 192 nM | 353 nM | 431 nM | 361 nM | 378 nM
UUGAGCCGGACUCAAGUCCGGCUCUGCGAGCGAGGACCGGUACGGCCGCCACUCGGUGCAGUGAUGUUGCAUGGCCGCAAGGCCG [#2 Exclusion - Tryptophan A Attempt #13 (HarryS)] | 413 nM | 133 nM | 482 nM | 404 nM | 520 nM
UUGAGCCUGACGCAAGUCAGGCUCUGCGAGCGAGGACCGGUACGGCCGCCACUCGGUGCAGUGAUGUUGCAUGGCCGCAAGGCCG [#2 Exclusion - Tryptophan A Attempt #17 (HarryS)] | 316 nM | 299 nM | 318 nM | 394 nM | 441 nM
UUGAUAUGAUAAUAUCCUGUUUGAUAAAGACAGGAUAUAGAAAAUACUAGAAGGGUCAUUAUAUGCAGUGAUGUUGCAAAUAAGU [Exclusion FMN A Gf 23] | 42.2 nM | 67.3 nM | 45.7 nM | 66.2 nM | 37.6 nM
UUGAUAUGAUAGUAUCUUGUUUGAUAAAGGCAGGAUAUCGUAUAUUUGAGAAGGGCCAUUAUAUGCAGUGAUGUUGCAAAUAAGU [Exclusion FMN A Gf 25] | 43.5 nM | 56.7 nM | 41.3 nM | 61.4 nM | 40 nM
